Data taken from the Human Domainome abundance scans (Beltran et al. 2025).
± gives the uncertainty stated by the source.

B1: Nucleolar transcription factor 1, residues 408 to 469; numbered along this chain, P17480 (parent)
chain: KRPVSAMFIFSEEKRRQLQEERPELSESELTRLLARMWNDLSEKKKAKYKAREAALKAQSER

Variants of: B1
Test: abundance fitness (aPCA) (normalised: wild type 0, dead -1); higher = more abundant; growth selection in yeast, the domain comes from the species named
Settings: Homo sapiens

In order of rising abundance fitness:
1. KRPVSAMFIFSEEKPRQLQEERPELSESELTRLLARMWNDLSEKKKAKYKAREAALKAQSER [R15P]  -1.28 ± 0.15
2. KRPVSAMFIFSEEKNRQLQEERPELSESELTRLLARMWNDLSEKKKAKYKAREAALKAQSER [R15N]  -0.427 ± 0.08
3. KRPVSAMFIFSEEKHRQLQEERPELSESELTRLLARMWNDLSEKKKAKYKAREAALKAQSER [R15H]  -0.411 ± 0.2
4. KRPVSAMFIFSEEKWRQLQEERPELSESELTRLLARMWNDLSEKKKAKYKAREAALKAQSER [R15W]  -0.295 ± 0.096
5. KRPVSAMFIFSEEKVRQLQEERPELSESELTRLLARMWNDLSEKKKAKYKAREAALKAQSER [R15V]  -0.29 ± 0.052
6. KRPVSAMFIFSEEKQRQLQEERPELSESELTRLLARMWNDLSEKKKAKYKAREAALKAQSER [R15Q]  -0.267 ± 0.13
7. KRPVSAMFIFSEEKRDQLQEERPELSESELTRLLARMWNDLSEKKKAKYKAREAALKAQSER [R16D]  -0.248 ± 0.094
8. KRPVSAMFIFSEEKYRQLQEERPELSESELTRLLARMWNDLSEKKKAKYKAREAALKAQSER [R15Y]  -0.243 ± 0.16
9. KRPVSAMFIFSEEKTRQLQEERPELSESELTRLLARMWNDLSEKKKAKYKAREAALKAQSER [R15T]  -0.23 ± 0.077
10. KRPVSAMFIFSEEKRRCLQEERPELSESELTRLLARMWNDLSEKKKAKYKAREAALKAQSER [Q17C]  -0.211 ± 0.078
11. KRPVSAMFIFSEEKIRQLQEERPELSESELTRLLARMWNDLSEKKKAKYKAREAALKAQSER [R15I]  -0.209 ± 0.094
12. KRPVSAMFIFSEEKRRILQEERPELSESELTRLLARMWNDLSEKKKAKYKAREAALKAQSER [Q17I]  -0.201 ± 0.14
13. KRPVSAMFIFSEEKMRQLQEERPELSESELTRLLARMWNDLSEKKKAKYKAREAALKAQSER [R15M]  -0.19 ± 0.11
14. KRPVSAMFIFSEEKLRQLQEERPELSESELTRLLARMWNDLSEKKKAKYKAREAALKAQSER [R15L]  -0.168 ± 0.043
15. KRPVSAMFIFSEEKRNQLQEERPELSESELTRLLARMWNDLSEKKKAKYKAREAALKAQSER [R16N]  -0.154 ± 0.16
16. KRPVSAMFIFSEEKRFQLQEERPELSESELTRLLARMWNDLSEKKKAKYKAREAALKAQSER [R16F]  -0.147 ± 0.1
17. KRPVSAMFIFSEEKSRQLQEERPELSESELTRLLARMWNDLSEKKKAKYKAREAALKAQSER [R15S]  -0.121 ± 0.05
18. KRPVSAMFIFSEEKRRRLQEERPELSESELTRLLARMWNDLSEKKKAKYKAREAALKAQSER [Q17R]  -0.114 ± 0.051
19. KRPVSAMFIFSEEKRRDLQEERPELSESELTRLLARMWNDLSEKKKAKYKAREAALKAQSER [Q17D]  -0.112 ± 0.11
20. KRPVSAMFIFSEEKRIQLQEERPELSESELTRLLARMWNDLSEKKKAKYKAREAALKAQSER [R16I]  -0.11 ± 0.13
21. KRPVSAMFIFSEEKREQLQEERPELSESELTRLLARMWNDLSEKKKAKYKAREAALKAQSER [R16E]  -0.106 ± 0.074
22. KRPVSAMFIFSEEKRWQLQEERPELSESELTRLLARMWNDLSEKKKAKYKAREAALKAQSER [R16W]  -0.106 ± 0.054
23. KRPVSAMFIFSEEKRRKLQEERPELSESELTRLLARMWNDLSEKKKAKYKAREAALKAQSER [Q17K]  -0.094 ± 0.068
24. KRPVSAMFIFSEEKRRHLQEERPELSESELTRLLARMWNDLSEKKKAKYKAREAALKAQSER [Q17H]  -0.091 ± 0.12
25. KRPVSAMFIFSEEKRRALQEERPELSESELTRLLARMWNDLSEKKKAKYKAREAALKAQSER [Q17A]  -0.081 ± 0.068
26. KRPVSAMFIFSEEKRTQLQEERPELSESELTRLLARMWNDLSEKKKAKYKAREAALKAQSER [R16T]  -0.078 ± 0.099
27. KRPVSAMFIFSEEKRRNLQEERPELSESELTRLLARMWNDLSEKKKAKYKAREAALKAQSER [Q17N]  -0.078 ± 0.22
28. KRPVSAMFIFSEEKRKQLQEERPELSESELTRLLARMWNDLSEKKKAKYKAREAALKAQSER [R16K]  -0.073 ± 0.12
29. KRPVSAMFIFSEEKRYQLQEERPELSESELTRLLARMWNDLSEKKKAKYKAREAALKAQSER [R16Y]  -0.072 ± 0.099
30. KRPVSAMFIFSEEKRHQLQEERPELSESELTRLLARMWNDLSEKKKAKYKAREAALKAQSER [R16H]  -0.071 ± 0.07
31. KRPVSAMFIFSEEKRLQLQEERPELSESELTRLLARMWNDLSEKKKAKYKAREAALKAQSER [R16L]  -0.058 ± 0.056
32. KRPVSAMFIFSEEKRVQLQEERPELSESELTRLLARMWNDLSEKKKAKYKAREAALKAQSER [R16V]  -0.044 ± 0.053
33. KRPVSAMFIFSEEKRQQLQEERPELSESELTRLLARMWNDLSEKKKAKYKAREAALKAQSER [R16Q]  -0.041 ± 0.066
34. KRPVSAMFIFSEEKRRGLQEERPELSESELTRLLARMWNDLSEKKKAKYKAREAALKAQSER [Q17G]  -0.038 ± 0.041
35. KRPVSAMFIFSEEKRGQLQEERPELSESELTRLLARMWNDLSEKKKAKYKAREAALKAQSER [R16G]  -0.037 ± 0.043
36. KRPVSAMFIFSEEKRRLLQEERPELSESELTRLLARMWNDLSEKKKAKYKAREAALKAQSER [Q17L]  -0.034 ± 0.046
37. KRPVSAMFIFSEEKRRMLQEERPELSESELTRLLARMWNDLSEKKKAKYKAREAALKAQSER [Q17M]  -0.028 ± 0.057
38. KRPVSAMFIFSEEKRAQLQEERPELSESELTRLLARMWNDLSEKKKAKYKAREAALKAQSER [R16A]  -0.027 ± 0.051
39. KRPVSAMFIFSEEKRMQLQEERPELSESELTRLLARMWNDLSEKKKAKYKAREAALKAQSER [R16M]  -0.024 ± 0.067
40. KRPVSAMFIFSEEKRCQLQEERPELSESELTRLLARMWNDLSEKKKAKYKAREAALKAQSER [R16C]  -0.012 ± 0.069
41. KRPVSAMFIFSEEKRSQLQEERPELSESELTRLLARMWNDLSEKKKAKYKAREAALKAQSER [R16S]  -0.001 ± 0.048
42. KRPVSAMFIFSEEKRRELQEERPELSESELTRLLARMWNDLSEKKKAKYKAREAALKAQSER [Q17E]  0.002 ± 0.055
43. KRPVSAMFIFSEEKKRQLQEERPELSESELTRLLARMWNDLSEKKKAKYKAREAALKAQSER [R15K]  0.035 ± 0.078
